Laboratory results from patent US6165732A, “Method for identifying apoptosis modulating compounds” (Washington University, priority 1998, dated 2000).

Key:
[1] = Channel forming activity of peptide in planar lipid bilayers which lack BCL-2 related proteins; assay type: biochemical; details: bilayers lacking BCL-2 related proteins
[2] = test system: cell death; details: known activity; cited from earlier work
[3] = test system: Bax channel; test: Effect of Bax 11-mer peptide on Bax channel in planar lipid bilayer; assay type: biochemical, murine; details: 20 to 100 μM
[4] = target: T1, Bcl-2 channel (Mus musculus, UniProt P10417); test: Effect of Bax death agonist peptide on Bcl-2 channel in planar lipid bilayer; assay type: biochemical, murine; details: for effect on conductance pattern of Bcl-2 channel: 20 to 100 μM; for effect on ion selectivity of Bcl-2 channel: peptide added to Bcl-2 channel
T1 construct: proteoliposomes fused to planar lipid bilayer
Excerpt: The Bax and Bcl-2 polypeptides used in the ion channel studies reported herein were recombinant murine Bcl-2 and Bax polypeptides lacking the C-terminal signal-anchor membrane targeting sequence (Bcl-2ΔC21, amino acids 1-218 of SEQ ID NO:9 and BaxΔC19, amino acids 1-173 of SEQ ID NO:6). These deletion derivatives, also referred to herein as BaxΔTM and Bcl-2ΔTM, were used to avoid any interference of the C-terminal signal-anchor membrane targeting sequence with the capacity of internal α helices to mediate insertion into artificial lipid bilayers.
Proteoliposomes for fusion with a planar lipid bilayer were prepared as follows. Purified protein (0.25 μg) was added to […] lipid (Azolectin) in 20 μl of KCl buffer (150 mM KCl, 10 mM HEPES, pH 7.0). This mixture was placed into a dialysis bag with a molecular weight cutoff of 12 KDa. After 16 hours dialysis in 3000 volumes of 150 mM KCl (10 mM HEPES, pH 7.0) the proteoliposome suspension was removed and placed on ice for immediate use. The bilayer was set up with a 450:150 cis to trans KCl gradient to identify the ion selectivity of the initial currents. Fusion was initiated by adding 5-20 μl of lipid vesicles (only 5-20 ng of protein) to the cis bilayer chamber with mixing. Non-fused proteoliposomes were removed from the compartments and solutions exchanged as described above.
Control bilayers containing Bcl-2 or Bax channels were prepared by fusion of unilamellar proteoliposomes with incorporated Bcl-2ΔTM or BaxΔTM with an established planar bilayer as described in Example 4. Test bilayers containing Bcl-2 channels were prepared in the same manner to which an 11 mer Bax peptide (SEQ ID NO:1) with known death agonist activity was added at 20, 50 or 100 μM. A voltage of 80 mV was applied to each control and test channel and its conductance measured for a period of 12 to 16 seconds and the frequency that each channel was measured at a particular conductance level (pA) was calculated. The data, representing about 500,000 measurements, are shown as histograms in FIGS. 8A-8E.
Bilayers containing Bcl-2 and Bax channels were prepared as described in Example 4 with 150 mM KCl on both sides of the bilayer. The death agonist peptide was added to the cis side of a Bcl-2 channel at 150 μM. The voltage dependence of the currents and the ion selectivity for the Bcl-2 channel in the absence and presence of the death agonist peptide, as well as the Bax channel were determined and the data are shown in FIGS. 9A-C.

T1 sequence (P10417 1-218): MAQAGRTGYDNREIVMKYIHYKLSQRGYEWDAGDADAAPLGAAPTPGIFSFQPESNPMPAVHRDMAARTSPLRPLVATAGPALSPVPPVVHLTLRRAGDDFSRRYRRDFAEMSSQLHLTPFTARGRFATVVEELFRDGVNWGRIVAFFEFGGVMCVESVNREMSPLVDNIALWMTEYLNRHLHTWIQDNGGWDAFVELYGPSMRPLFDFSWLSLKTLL

ECLKRIGDELD [Bax 11mer peptide]
channel forming activity [1]: no channel forming activity
cell death induction (known) [2]: known to induce cell death
effect on activity of Bax channels [3]: not affected
single remaining conductance peak of Bcl-2 channel ([4]; 100 μM peptide, 80 mV): about 65 pA
pK/pCl of Bcl-2 channel with peptide ([4]; 150 μM peptide, cis side): 0.26±0.05
slope of Bcl-2 channel current at negative potentials ([4]; 150 μM peptide, symmetrical 150 mM KCl): linear and intermediate between that of Bcl-2 and Bax alone
effect on rectification of Bcl-2 channel ([4]; 150 μM peptide, symmetrical 150 mM KCl, listed as death agonist peptide): imparted rectification
effect on conductance pattern of Bcl-2 channel [4]: a simpler single channel conductance pattern
effect on conductance pattern of Bcl-2 channel ([4]; listed as 11 mer Bax peptide): changes its characteristic conductance pattern in a progressive manner
effect on ion selectivity of Bcl-2 channel [4]: Cl^- selectivity
effect on ion selectivity of Bcl-2 channel ([4]; listed as death agonist peptide): reversed the ion selectivity of the Bcl-2 channel
